Results on 52 molecules are retold here after patent publication US20230151068A1.

First the molecules themselves.
B1: I05K variant of SEQ ID NO: 1 (designed binder)
chain: GSPDEYKERAKECCKKGDIQCCLRYFEESGDPNVMLICLFCP
B2: E06Q variant of SEQ ID NO: 1 (designed binder)
chain: GSPDEYIQRAKECCKKGDIQCCLRYFEESGDPNVMLICLFCP
B3: D02S variant of SEQ ID NO: 1 (designed binder)
chain: GSPSEYIERAKECCKKGDIQCCLRYFEESGDPNVMLICLFCP
B4: E03N variant of SEQ ID NO: 1 (designed binder)
chain: GSPDNYIERAKECCKKGDIQCCLRYFEESGDPNVMLICLFCP
B5: P01N variant of SEQ ID NO: 1 (designed binder)
chain: GSNDEYIERAKECCKKGDIQCCLRYFEESGDPNVMLICLFCP
B6: D02N variant of SEQ ID NO: 1 (designed binder)
chain: GSPNEYIERAKECCKKGDIQCCLRYFEESGDPNVMLICLFCP
B7: I05R variant of SEQ ID NO: 1 (designed binder)
chain: GSPDEYRERAKECCKKGDIQCCLRYFEESGDPNVMLICLFCP
B8: E03M variant of SEQ ID NO: 1 (designed binder)
chain: GSPDMYIERAKECCKKGDIQCCLRYFEESGDPNVMLICLFCP
B9: K09R variant of SEQ ID NO: 1 (designed binder)
chain: GSPDEYIERARECCKKGDIQCCLRYFEESGDPNVMLICLFCP
B10: A08Q variant of SEQ ID NO: 1 (designed binder)
chain: GSPDEYIERQKECCKKGDIQCCLRYFEESGDPNVMLICLFCP
B11: K09M variant of SEQ ID NO: 1 (designed binder)
chain: GSPDEYIERAMECCKKGDIQCCLRYFEESGDPNVMLICLFCP
B12: E06M variant of SEQ ID NO: 1 (designed binder)
chain: GSPDEYIMRAKECCKKGDIQCCLRYFEESGDPNVMLICLFCP
B13: R07S variant of SEQ ID NO: 1 (designed binder)
chain: GSPDEYIESAKECCKKGDIQCCLRYFEESGDPNVMLICLFCP
B14: E03Q variant of SEQ ID NO: 1 (designed binder)
chain: GSPDQYIERAKECCKKGDIQCCLRYFEESGDPNVMLICLFCP
B15: D02R variant of SEQ ID NO: 1 (designed binder)
chain: GSPREYIERAKECCKKGDIQCCLRYFEESGDPNVMLICLFCP
B16: P01Q variant of SEQ ID NO: 1 (designed binder)
chain: GSQDEYIERAKECCKKGDIQCCLRYFEESGDPNVMLICLFCP
B17: E10M variant of SEQ ID NO: 1 (designed binder)
chain: GSPDEYIERAKMCCKKGDIQCCLRYFEESGDPNVMLICLFCP
B18: P01S variant of SEQ ID NO: 1 (designed binder)
chain: GSSDEYIERAKECCKKGDIQCCLRYFEESGDPNVMLICLFCP
B19: E06K variant of SEQ ID NO: 1 (designed binder)
chain: GSPDEYIKRAKECCKKGDIQCCLRYFEESGDPNVMLICLFCP
B20: A08K variant of SEQ ID NO: 1 (designed binder)
chain: GSPDEYIERKKECCKKGDIQCCLRYFEESGDPNVMLICLFCP
B21: R07K variant of SEQ ID NO: 1 (designed binder)
chain: GSPDEYIEKAKECCKKGDIQCCLRYFEESGDPNVMLICLFCP
B22: E10R variant of SEQ ID NO: 1 (designed binder)
chain: GSPDEYIERAKRCCKKGDIQCCLRYFEESGDPNVMLICLFCP
B23: E06N variant of SEQ ID NO: 1 (designed binder)
chain: GSPDEYINRAKECCKKGDIQCCLRYFEESGDPNVMLICLFCP
B24: I05M variant of SEQ ID NO: 1 (designed binder)
chain: GSPDEYMERAKECCKKGDIQCCLRYFEESGDPNVMLICLFCP
B25: E03R variant of SEQ ID NO: 1 (designed binder)
chain: GSPDRYIERAKECCKKGDIQCCLRYFEESGDPNVMLICLFCP
B26: K09N variant of SEQ ID NO: 1 (designed binder)
chain: GSPDEYIERANECCKKGDIQCCLRYFEESGDPNVMLICLFCP
B27: A08S variant of SEQ ID NO: 1 (designed binder)
chain: GSPDEYIERSKECCKKGDIQCCLRYFEESGDPNVMLICLFCP
B28: A08M variant of SEQ ID NO: 1 (designed binder)
chain: GSPDEYIERMKECCKKGDIQCCLRYFEESGDPNVMLICLFCP
B29: E10Q variant of SEQ ID NO: 1 (designed binder)
chain: GSPDEYIERAKQCCKKGDIQCCLRYFEESGDPNVMLICLFCP
B30: A08N variant of SEQ ID NO: 1 (designed binder)
chain: GSPDEYIERNKECCKKGDIQCCLRYFEESGDPNVMLICLFCP
B31: E06S variant of SEQ ID NO: 1 (designed binder)
chain: GSPDEYISRAKECCKKGDIQCCLRYFEESGDPNVMLICLFCP
B32: I05S variant of SEQ ID NO: 1 (designed binder)
chain: GSPDEYSERAKECCKKGDIQCCLRYFEESGDPNVMLICLFCP
B33: A08R variant of SEQ ID NO: 1 (designed binder)
chain: GSPDEYIERRKECCKKGDIQCCLRYFEESGDPNVMLICLFCP
B34: Y04Q variant of SEQ ID NO: 1 (designed binder)
chain: GSPDEQIERAKECCKKGDIQCCLRYFEESGDPNVMLICLFCP
B35: I05Q variant of SEQ ID NO: 1 (designed binder)
chain: GSPDEYQERAKECCKKGDIQCCLRYFEESGDPNVMLICLFCP
B36: E10K variant of SEQ ID NO: 1 (designed binder)
chain: GSPDEYIERAKKCCKKGDIQCCLRYFEESGDPNVMLICLFCP
B37: E10N variant of SEQ ID NO: 1 (designed binder)
chain: GSPDEYIERAKNCCKKGDIQCCLRYFEESGDPNVMLICLFCP
B38: Y04M variant of SEQ ID NO: 1 (designed binder)
chain: GSPDEMIERAKECCKKGDIQCCLRYFEESGDPNVMLICLFCP
B39: R07N variant of SEQ ID NO: 1 (designed binder)
chain: GSPDEYIENAKECCKKGDIQCCLRYFEESGDPNVMLICLFCP
B40: I05N variant of SEQ ID NO: 1 (designed binder)
chain: GSPDEYNERAKECCKKGDIQCCLRYFEESGDPNVMLICLFCP
B41: D02Q variant of SEQ ID NO: 1 (designed binder)
chain: GSPQEYIERAKECCKKGDIQCCLRYFEESGDPNVMLICLFCP
B42: Y04N variant of SEQ ID NO: 1 (designed binder)
chain: GSPDENIERAKECCKKGDIQCCLRYFEESGDPNVMLICLFCP
B43: R07Q variant of SEQ ID NO: 1 (designed binder)
chain: GSPDEYIEQAKECCKKGDIQCCLRYFEESGDPNVMLICLFCP
B44: P01R variant of SEQ ID NO: 1 (designed binder)
chain: GSRDEYIERAKECCKKGDIQCCLRYFEESGDPNVMLICLFCP
B45: R07M variant of SEQ ID NO: 1 (designed binder)
chain: GSPDEYIEMAKECCKKGDIQCCLRYFEESGDPNVMLICLFCP
B46: Y04S variant of SEQ ID NO: 1 (designed binder)
chain: GSPDESIERAKECCKKGDIQCCLRYFEESGDPNVMLICLFCP
B47: P01M variant of SEQ ID NO: 1 (designed binder)
chain: GSMDEYIERAKECCKKGDIQCCLRYFEESGDPNVMLICLFCP
B48: Y04R variant of SEQ ID NO: 1 (designed binder)
chain: GSPDERIERAKECCKKGDIQCCLRYFEESGDPNVMLICLFCP
B49: E03S variant of SEQ ID NO: 1 (designed binder)
chain: GSPDSYIERAKECCKKGDIQCCLRYFEESGDPNVMLICLFCP
B50: K09Q variant of SEQ ID NO: 1 (designed binder)
chain: GSPDEYIERAQECCKKGDIQCCLRYFEESGDPNVMLICLFCP
B51: D02M variant of SEQ ID NO: 1 (designed binder)
chain: GSPMEYIERAKECCKKGDIQCCLRYFEESGDPNVMLICLFCP
B52: E06R variant of SEQ ID NO: 1 (designed binder)
chain: GSPDEYIRRAKECCKKGDIQCCLRYFEESGDPNVMLICLFCP

This assay has as its target biotinylated His-Avi-TEAD (194-411) (UniProt P28347). Put plainly: SSM screen, enrichment after two rounds of sorting.
B1: the enrichment score was -1.5. Consider B2, for which the enrichment score was -2.41. On to B3, for which the enrichment score was -1.01.

Regarding B4, the enrichment score worked out at 0.58. Consider B5, for which the enrichment score is -0.49. Consider B6, for which the enrichment score was -0.16. Take B7: the enrichment score was -3.27.

B8 yielded an enrichment score of 2.57. With B9 the figure was -1.3; with B10, -6. As for B11, the enrichment score is -3.56. Consider B12, for which the enrichment score was -2.04. Under B13 stands 0.31. Regarding B14, the enrichment score was -1.35.

As to B15, the enrichment score was -7.12.

On to B16, for which the enrichment score is -0.84.

As for B17, the enrichment score is -0.34. B18: the enrichment score was determined as 0.13.

With B19, the enrichment score is -1.13. In the case of B20, the enrichment score was -4.73. The molecule B21 showed an enrichment score of 0.47.

For B22, the enrichment score was -2.84. Regarding B23, the enrichment score was -0.82.

In the case of B24, the enrichment score is -1.87. Consider B25, for which the enrichment score is -1.81. In turn, B26 came in with an enrichment score of 3.31.

Take B27: the enrichment score was -2.79. For B28, the enrichment score is -10.1. In the case of B29, the enrichment score was -1.94. Turning to B30, the enrichment score is -9.2. B31: the enrichment score is -1.09. On to B32, for which the enrichment score is -2.04. With B33 the figure was -5.84. Under B34 stands 0.29; under B35, -1.23; under B36, -2.3. On to B37, for which the enrichment score is -0.45. For B38, the enrichment score is -0.68.

B39 displayed an enrichment score of 0.34. On to B40, for which the enrichment score was -1.34. For the molecule B41, the enrichment score was -0.2.

Regarding B42, the enrichment score was 0.04. On to B43, for which the enrichment score is -0.48. As to B44, the enrichment score is -2.1.

As for B45, the enrichment score is -1.06. Under B46 stands -0.74; under B47, -1.02. With B48 the figure was -0.94; with B49, -0.41. B50: the enrichment score is 1.1. With B51 the figure was -1.86; with B52, -1.78.
